Assay results: the supplement of paper PMC12667976
± gives the standard error.

B1: library; numbered along this chain (parent)
chain: MATDAALRRLLRLHRTEIAVAVDSAFPLLHALADHDVVPEDKFQETLHLKEKEGCPQAFHALLSWLLTQDSTAILDFWRVLFKDYNLERYGRLQPILDSFPKDVDLSQPRKGRKPPAVPKALVPPPRLPTKRKASEEARAAAPAALTPRGTASPGSQLKAKPPKKPESSAEQQRLPLGNGIQTMSASVQRAVAMSSGDVPGARGAVEGILIQQVFESGGSKKCIQVGGEFYTPSKFEDSGSGKNKARSSSGPKPLVRAKGAQGAAPGGGEARLGQQGSVPAPLALPSDPQLHQKNEDECAVCRDGGELICCDGCPRAFHLACLSPPLREIPSGTWRCSSCLQATVQEVQPRAEEPRPQEPPVETPLPPGLRSAGEEVRGPPGEPLAGMDTTLVYKHLPAPPSAAPLPGLDSSALHPLLCVGPEGQQNLAPGARCGVCGDGTDVLRCTHCAAAFHWRCHFPAGTSRPGTGLRCRSCSGDVTPAPVEGVLAPSPARLAPGPAKDDTASHEPALHRDDLESLLSEHTFDGILQWAIQSMARPAAPFPS

Variants of: B1
Assay: AIRE transcriptional activation functional score (insulin promoter-GFP; nonsense median 0, synonymous median 1) (normalised score); higher = higher AIRE activity (more reporter activation)
Conditions: with insulin promoter-GFP reporter in HEK293
Experimental: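 Deep mutational scan of full-length human AIRE (codon-optimized cDNA, DT-POPCode NNN libraries over three regions) integrated at a Bxb1 landing pad in HEK293 cells carrying an insulin core promoter-GFP reporter at a Flp-In site. Cells were sorted for the top 10% GFP about 14 days after transfection. Variant frequency log-ratios (select vs non-select, TileSeq) were rescaled so that the nonsense median is 0 and the synonymous median is 1, then averaged over biological replicates.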

Q: How did the “AIRE transcriptional activation functional score” value turn out when L370P was run?
A: The value was 1.08 ± 0.096.

Q: With K395R as the variant, how does the “AIRE transcriptional activation functional score” value read?
A: Its value is -0.166 ± 0.49.

Q: S278G was tested. Which “AIRE transcriptional activation functional score” value did it give?
A: The value was 1.34 ± 0.16.

Q: With V37A as the variant, how does the “AIRE transcriptional activation functional score” value read?
A: The value was -0.162 ± 0.092.

Q: Q173T was tested. Which “AIRE transcriptional activation functional score” value did it give?
A: The value was 1.44 ± 0.49.

Q: Q173R was tested. Which “AIRE transcriptional activation functional score” value did it give?
A: The value was 1.67 ± 0.6.

Q: Which “AIRE transcriptional activation functional score” value does the source give for Q173K here?
A: Its value is 1.44 ± 0.27.

Q: Q275G was tested. Which “AIRE transcriptional activation functional score” value did it give?
A: The value was 0.894 ± 0.33.

Q: Which “AIRE transcriptional activation functional score” value does the source give for Q275K here?
A: Its value is 1.06 ± 0.11.

Q: Which “AIRE transcriptional activation functional score” value does the source give for Q213F here?
A: Its value is -0.348 ± 0.053.

Q: With Q213C as the variant, how does the “AIRE transcriptional activation functional score” value read?
A: Its value is 0.354 ± 0.19.

Q: With S412N as the variant, how does the “AIRE transcriptional activation functional score” value read?
A: Its value is 0.717 ± 0.1.

Q: Q182C was tested. Which “AIRE transcriptional activation functional score” value did it give?
A: Its value is 1.4 ± 0.33.

Q: For C475M, which “AIRE transcriptional activation functional score” value is on record?
A: The value was -0.469 ± 0.15.

Q: Which “AIRE transcriptional activation functional score” value does the source give for C475Y here?
A: The value was 0.0941 ± 0.16.

Q: For P497E, which “AIRE transcriptional activation functional score” value is on record?
A: Its value is 0.495 ± 0.076.

Q: With P154K as the variant, how does the “AIRE transcriptional activation functional score” value read?
A: Its value is -1.06 ± 0.26.

Q: With P154I as the variant, how does the “AIRE transcriptional activation functional score” value read?
A: Its value is 1.59 ± 0.16.

Q: With S287Y as the variant, how does the “AIRE transcriptional activation functional score” value read?
A: The value was 1.17 ± 0.15.

Q: With S287W as the variant, how does the “AIRE transcriptional activation functional score” value read?
A: The value was 1.12 ± 0.057.

Q: For M536A, which “AIRE transcriptional activation functional score” value is on record?
A: Its value is 0.0376 ± 0.42.

Q: How did the “AIRE transcriptional activation functional score” value turn out when I96A was run?
A: Its value is -0.165 ± 0.33.

Q: P481S was tested. Which “AIRE transcriptional activation functional score” value did it give?
A: The value was 0.91 ± 0.43.

Q: For E53Y, which “AIRE transcriptional activation functional score” value is on record?
A: The value was -0.0622 ± 1.2.

Q: Which “AIRE transcriptional activation functional score” value does the source give for S324K here?
A: The value was 0.415 ± 0.31.

Q: How did the “AIRE transcriptional activation functional score” value turn out when M184G was run?
A: Its value is 1.01 ± 0.16.

Q: With A21F as the variant, how does the “AIRE transcriptional activation functional score” value read?
A: Its value is -0.0679 ± 0.18.

Q: With A21W as the variant, how does the “AIRE transcriptional activation functional score” value read?
A: The value was -0.574 ± 0.14.

Q: Which “AIRE transcriptional activation functional score” value does the source give for L10R here?
A: Its value is 0.701 ± 0.58.

Q: How did the “AIRE transcriptional activation functional score” value turn out when S521Q was run?
A: The value was 0.377 ± 0.17.

Q: Which “AIRE transcriptional activation functional score” value does the source give for S521I here?
A: Its value is 0.551 ± 0.18.

Q: How did the “AIRE transcriptional activation functional score” value turn out when H507I was run?
A: Its value is 1.27 ± 0.25.

Q: Which “AIRE transcriptional activation functional score” value does the source give for E17L here?
A: Its value is 0.113 ± 0.36.

Q: For E17Q, which “AIRE transcriptional activation functional score” value is on record?
A: Its value is -0.406 ± 0.85.

Q: For V436T, which “AIRE transcriptional activation functional score” value is on record?
A: Its value is 0.824 ± 0.31.

Q: How did the “AIRE transcriptional activation functional score” value turn out when K133E was run?
A: The value was 0.0731 ± 0.23.

Q: With E354T as the variant, how does the “AIRE transcriptional activation functional score” value read?
A: The value was 0.99 ± 0.2.

Q: Which “AIRE transcriptional activation functional score” value does the source give for E354H here?
A: Its value is 1.1 ± 0.14.

Q: How did the “AIRE transcriptional activation functional score” value turn out when A399W was run?
A: Its value is 1.2 ± 0.14.

Q: Which “AIRE transcriptional activation functional score” value does the source give for G112R here?
A: The value was 0.278 ± 0.5.

Q: L93C was tested. Which “AIRE transcriptional activation functional score” value did it give?
A: The value was -0.0574 ± 0.11.

Q: How did the “AIRE transcriptional activation functional score” value turn out when L93G was run?
A: Its value is -0.0131 ± 0.3.

Q: Which “AIRE transcriptional activation functional score” value does the source give for T151G here?
A: Its value is 1.36 ± 0.36.

Q: G440R was tested. Which “AIRE transcriptional activation functional score” value did it give?
A: Its value is 0.76 ± 0.21.

Q: With E375F as the variant, how does the “AIRE transcriptional activation functional score” value read?
A: The value was 1.55 ± 0.084.

Q: For G313E, which “AIRE transcriptional activation functional score” value is on record?
A: The value was 0.654 ± 0.1.

Q: With P115C as the variant, how does the “AIRE transcriptional activation functional score” value read?
A: The value was 0.977 ± 0.18.

Q: With L428K as the variant, how does the “AIRE transcriptional activation functional score” value read?
A: The value was 0.817 ± 0.14.

Q: How did the “AIRE transcriptional activation functional score” value turn out when C449Q was run?
A: The value was 0.388 ± 0.15.

Q: How did the “AIRE transcriptional activation functional score” value turn out when C449D was run?
A: The value was 0.418 ± 0.038.

Q: For L283V, which “AIRE transcriptional activation functional score” value is on record?
A: The value was 1.12 ± 0.096.

Q: A170T was tested. Which “AIRE transcriptional activation functional score” value did it give?
A: Its value is 0.748 ± 0.48.

Q: Which “AIRE transcriptional activation functional score” value does the source give for V479S here?
A: The value was 0.925 ± 0.28.

Q: How did the “AIRE transcriptional activation functional score” value turn out when V479H was run?
A: Its value is 1.16 ± 0.12.

Q: Which “AIRE transcriptional activation functional score” value does the source give for L444R here?
A: Its value is 1.17 ± 0.17.

Q: How did the “AIRE transcriptional activation functional score” value turn out when L320H was run?
A: Its value is 0.847 ± 0.13.

Q: With L320A as the variant, how does the “AIRE transcriptional activation functional score” value read?
A: Its value is 1.19 ± 0.23.

Q: How did the “AIRE transcriptional activation functional score” value turn out when C457M was run?
A: Its value is -0.234 ± 0.073.

Q: For Q172P, which “AIRE transcriptional activation functional score” value is on record?
A: Its value is 0.611 ± 0.23.

Q: For S71E, which “AIRE transcriptional activation functional score” value is on record?
A: Its value is 1.17 ± 0.4.

Q: With K243G as the variant, how does the “AIRE transcriptional activation functional score” value read?
A: Its value is 1.03 ± 0.18.

Q: K243R was tested. Which “AIRE transcriptional activation functional score” value did it give?
A: The value was 1.1 ± 0.42.

Q: Which “AIRE transcriptional activation functional score” value does the source give for Q276T here?
A: Its value is 1.14 ± 0.16.

Q: For F543A, which “AIRE transcriptional activation functional score” value is on record?
A: The value was 0.367 ± 0.22.

Q: With D23F as the variant, how does the “AIRE transcriptional activation functional score” value read?
A: Its value is 0.3 ± 0.21.

Q: D23T was tested. Which “AIRE transcriptional activation functional score” value did it give?
A: The value was -0.174 ± 0.085.

Q: How did the “AIRE transcriptional activation functional score” value turn out when A317N was run?
A: The value was 0.865 ± 0.082.

Q: Which “AIRE transcriptional activation functional score” value does the source give for A317L here?
A: The value was 1.01 ± 0.42.

Q: Which “AIRE transcriptional activation functional score” value does the source give for N86W here?
A: The value was -0.448 ± 0.18.

Q: How did the “AIRE transcriptional activation functional score” value turn out when V206F was run?
A: Its value is 0.751 ± 0.04.

Q: Which “AIRE transcriptional activation functional score” value does the source give for H454W here?
A: The value was 0.31 ± 0.15.

Q: How did the “AIRE transcriptional activation functional score” value turn out when H454N was run?
A: Its value is -0.0603 ± 0.43.

Q: How did the “AIRE transcriptional activation functional score” value turn out when T147D was run?
A: The value was 0.817 ± 0.27.

Q: Which “AIRE transcriptional activation functional score” value does the source give for T147L here?
A: Its value is 1.05 ± 0.42.

Q: N427K was tested. Which “AIRE transcriptional activation functional score” value did it give?
A: The value was 0.842 ± 0.079.

Q: Which “AIRE transcriptional activation functional score” value does the source give for G379D here?
A: The value was 1.24 ± 0.21.

Q: With G379Y as the variant, how does the “AIRE transcriptional activation functional score” value read?
A: Its value is 1.47 ± 0.06.

Q: With N244Y as the variant, how does the “AIRE transcriptional activation functional score” value read?
A: Its value is 1.25 ± 0.29.

Q: With V345H as the variant, how does the “AIRE transcriptional activation functional score” value read?
A: The value was 0.756 ± 0.36.

Q: How did the “AIRE transcriptional activation functional score” value turn out when P360W was run?
A: Its value is 1.38 ± 0.031.

Q: With L285I as the variant, how does the “AIRE transcriptional activation functional score” value read?
A: The value was 1.02 ± 0.082.

Q: R378F was tested. Which “AIRE transcriptional activation functional score” value did it give?
A: The value was 1.1 ± 0.15.

Q: For R378Y, which “AIRE transcriptional activation functional score” value is on record?
A: Its value is 0.657 ± 0.28.

Q: For D98T, which “AIRE transcriptional activation functional score” value is on record?
A: Its value is -0.235 ± 0.47.
